From the FLAb antibody collection (doi:10.7554/elife.23156)

B1: scFv; the commonest letter at each place (parent)
chain 1: EVKLDETGGGLVQPGRPMKLSCVASGFTFSDYWMNWVRQSPEKGLEWVAQIRNKPYNYETYYSDSVKGRFTISRDDSKSSVYLQMNNLRVEDMGIYYCTGSYYGMDYWGQGTSVTVS
chain 2: DVVMTQTPLSLPVSLGDQASISCRSSQSLVHSNGNTYLRWYLQKPGQSPKVLIYKVSNRFSGVPDRFSGSGSGTDFTLKISRVEAEDLGVYFCSQSTHVPWTFGGGTKLEIK

Experiments:
fluorescein = variants of: B1; assay: Kd (Tite-Seq); details: with fluorescein; format: scFv 4-4-20, heavy + light
[1] = variants of: B1; assay: yeast surface expression (ratio to wild type); higher = more expressed; details: format: scFv 4-4-20, heavy + light

Kd (fluorescein) [µM]	Variant	yeast surface expression [1]
≥ 10	chain 1 S30A W33N	0.914
≥ 10	chain 1 M105P	0.648
≥ 10	chain 1 M105H	1.06
≥ 10	chain 1 Y107F W108E	0.411
≥ 10	chain 1 G100R Y107N G109K	0.235
0.00361	chain 1 S30A M34Y	0.977
≥ 10	chain 1 S101W D106I	0.296
≥ 10	chain 1 S101L Y103I	0.229
≥ 10	chain 1 N35R W36P	0.809
≥ 10	chain 1 D31T W33N	0.661
≥ 10	chain 1 D31P Y32L	0.86
0.495	chain 1 Y103C W108N	0.227
≥ 10	chain 1 Y102H M105T	0.972
≥ 10	chain 1 Y102R G109L	0.279
0.00166	chain 1 S101A D106L	0.302
≥ 10	chain 1 G104L Y107C	0.133
0.00158	chain 1 T28F V37C	0.588
6.27	chain 1 Y103C M105I	0.621
≥ 10	chain 1 Y107E G109E	0.288
≥ 10	chain 1 D31L Y32M W36M	0.543
≥ 10	chain 1 F29M W33C	0.983
≥ 10	chain 1 S101Q M105S	0.853
≥ 10	chain 1 S101Q M105Y	0.795
≥ 10	chain 1 G100S D106C	1.03

Kd (fluorescein) [µM]	Variant	yeast surface expression [1]
0.000504	chain 1 Y102A W108P	0.525
≥ 10	chain 1 G104I W108H	0.102
≥ 10	chain 1 G100P D106A	0.627
≥ 10	chain 1 S101T	0.88
≥ 10	chain 1 D106I W108N	0.254
0.00128	chain 1 T28L D31G	0.717
≥ 10	chain 1 T28H W36G	2.76
≥ 10	chain 1 W36E	0.765
≥ 10	chain 1 T28F F29W V37K	0.532
≥ 10	chain 1 F29I M34T	0.54
0.00142	chain 1 T28K S30H	0.814
≥ 10	chain 1 S30G W33V	1
≥ 10	chain 1 F29K Y32N	0.609
≥ 10	chain 1 G100M S101V	0.549
≥ 10	chain 1 Y32I W36G	0.465
≥ 10	chain 1 D106I G109C	0.203
≥ 10	chain 1 D31A Y32K M34C	1.1
0.00638	chain 1 T28A F29V	1.02
0.000803	chain 1 S30A	1.08
≥ 10	chain 1 G104V M105R G109W	0.425
≥ 10	chain 1 F29Q Y32V	0.848
4.14	chain 1 S30F M34C	0.514
≥ 10	chain 1 M34W W36T	0.686
≥ 10	chain 1 T28N Y32Q	1.04

Kd (fluorescein) [µM]	Variant	yeast surface expression [1]
≥ 10	chain 1 S30I D31H W33C	0.449
0.00871	chain 1 D106N W108I	0.556
0.0132	chain 1 Y102K Y103D	1.24
≥ 10	chain 1 Y107K	0.637
≥ 10	chain 1 F29W S30I	0.599
≥ 10	chain 1 S30W Y32Q	0.646
7.72	chain 1 V37H	0.831
≤ 0.000316	chain 1 V37C	0.926
0.00309	chain 1 V37N	0.62
0.0113	chain 1 Y102A M105N	1.14
≥ 10	chain 1 G100F M105K	1.1
≥ 10	chain 1 Y103W G109A	0.557
≥ 10	chain 1 Y103V M105P	0.474
≥ 10	chain 1 D31Q N35L	0.418
≥ 10	chain 1 G104K G109C	0.195
≥ 10	chain 1 G104R Y107W	0.257
0.00546	chain 1 D31N Y32L	0.878
≥ 10	chain 1 S30Y W36N	0.436
≥ 10	chain 1 W33R M34D	0.356
7.72	chain 1 Y32R W36Y	0.635
≥ 10	chain 1 Y102N G104Q	0.924
≥ 10	chain 1 S101T M105S	0.699
≥ 10	chain 1 D31F V37E	0.257
≥ 10	chain 1 M105Q G109H	0.299

Kd (fluorescein) [µM]	Variant	yeast surface expression [1]
≥ 10	chain 1 S101F M105G	0.559
0.00707	chain 1 F29H V37R	
≥ 10	chain 1 D31I	0.531
0.000825	chain 1 D31N	1.1
0.00166	chain 1 D31G	0.887
0.00343	chain 1 D31A	0.772
0.00239	chain 1 T28A D31M	0.955
≥ 10	chain 1 M34P W36L	0.216
≥ 10	chain 1 S101Q G109S	0.645
0.00184	chain 1 M34I V37M	0.847
0.61	chain 1 M105R D106N	0.717
≥ 10	chain 1 S101D G109I	0.22
≥ 10	chain 1 G100E W108G G109H	0.242
≥ 10	chain 1 F29I W36L	0.729
0.000804	chain 1 T28D V37Q	0.726
≥ 10	chain 1 G100Y D106S	0.505
≥ 10	chain 1 Y103D G109D	0.542
≥ 10	chain 1 Y32C M34T	0.664
≥ 10	chain 1 M105E D106C	0.779
≥ 10	chain 1 S101N G109D	0.316
≥ 10	chain 1 Y32E W33T	0.889
≥ 10	chain 1 G104F D106K	0.201
≥ 10	chain 1 Y103N D106N W108T	0.736
≥ 10	chain 1 G104E W108G	0.296

Kd (fluorescein) [µM]	Variant	yeast surface expression [1]
≥ 10	chain 1 G100D Y107V	0.406
≥ 10	chain 1 S101C Y103V D106I	0.168
4.14	chain 1 Y102A Y103K	1.15
≥ 10	chain 1 W33T W36Y	0.79
0.0562	chain 1 M34F W36M	0.872
≥ 10	chain 1 G104W G109E	0.167
0.0146	chain 1 F29Q S30Q	0.966
≥ 10	chain 1 G100T Y102N	0.932
≥ 10	chain 1 Y107I G109Q	0.442
0.0162	chain 1 T28R N35G	1.03
≥ 10	chain 1 F29G D31R	0.931
≥ 10	chain 1 Y32V W33N	1.16
≥ 10	chain 1 W108C G109E	0.262
≥ 10	chain 1 Y102V G104K	0.494
≥ 10	chain 1 M105N G109C	0.123
0.00638	chain 1 F29S V37C	0.758
≥ 10	chain 1 Y107L W108D	0.326
0.0221	chain 1 Y32F M34L	0.781
≥ 10	chain 1 F29L M34C	0.745
≥ 10	chain 1 F29D V37D	0.557
0.0171	chain 1 Y103G	1.14
0.0445	chain 1 Y103D	1.21
≥ 10	chain 1 S101I M105N	0.482
0.0944	chain 1 W108M G109E	0.408

Kd (fluorescein) [µM]	Variant	yeast surface expression [1]
0.0011	chain 1 Y103V W108Y	0.619
≥ 10	chain 1 S101G M105A	0.988
≥ 10	chain 1 F29N N35A	0.862
≥ 10	chain 1 D106W G109V	0.0997
≥ 10	chain 1 F29A M34S	0.612
≥ 10	chain 1 W33Q	1.01
0.0412	chain 1 W33F	0.902
≥ 10	chain 1 F29R Y32Q	0.633
0.00175	chain 1 T28L S30A	1.11
≥ 10	chain 1 G104Q G109T	0.272
≥ 10	chain 1 D31R N35S V37L	0.577
1.02	chain 1 T28S W33F	0.903
≥ 10	chain 1 S101L Y103W Y107W	0.29
0.0015	chain 1 T28E S30V	0.928
≥ 10	chain 1 Y107A G109Q	0.292
≥ 10	chain 1 G104L M105G Y107F	0.414
≥ 10	chain 1 Y102Q M105V	1.05
8.56	chain 1 Y102Q M105I	0.843
≥ 10	chain 1 F29L D31L	0.633
≥ 10	chain 1 W33F W36L	0.594
≥ 10	chain 1 Y107S W108D	0.322
≥ 10	chain 1 F29G S30N	0.933
0.185	chain 1 F29V Y32W M34W	1.07
≥ 10	chain 1 W33V V37S	0.535

Kd (fluorescein) [µM]	Variant	yeast surface expression [1]
≥ 10	chain 1 G100F G109V	0.253
≥ 10	chain 1 G100F G109K	0.265
≥ 10	chain 1 S101D D106C W108N	0.369
≥ 10	chain 1 Y32A W33C	0.924
≥ 10	chain 1 W108K G109H	0.44
0.0107	chain 1 T28M S30L	0.725
≥ 10	chain 1 G100T Y103E	1.28
0.0434	chain 1 F29S N35R	0.922
0.0221	chain 1 Y103G Y107W	1.21
≥ 10	chain 1 Y103D G104Y	0.898
0.0233	chain 1 Y102K Y107H	0.909
≥ 10	chain 1 G100W Y107R	0.229
≥ 10	chain 1 D106H G109K	0.265
2.01	chain 1 Y102Q Y107H	1.01
0.0113	chain 1 T28C D31Q	0.575
≥ 10	chain 1 Y107W G109K	0.336
≥ 10	chain 1 G100C W108G	0.401
0.0245	chain 1 T28V Y32R	0.717
≥ 10	chain 1 F29D S30A	0.941
≥ 10	chain 1 S101K D106M	0.229
≥ 10	chain 1 G100Q G104E	0.38
≥ 10	chain 1 G104I Y107D	0.2
≥ 10	chain 1 M34K W36C	0.509
0.0171	chain 1 Y103E W108T	1.01

Kd (fluorescein) [µM]	Variant	yeast surface expression [1]
≥ 10	chain 1 W33E V37T	0.486
0.00194	chain 1 D31N M34A	0.614
≥ 10	chain 1 W33P M34H	0.508
≥ 10	chain 1 F29S W36Q	0.549
≥ 10	chain 1 S30E W33K	0.771
≥ 10	chain 1 M34A W36T	0.544
≥ 10	chain 1 G100H S101E	0.4
3.64	chain 1 G109D	0.573
≥ 10	chain 1 G109P	0.312
0.00265	chain 1 T28M	1.02
≥ 10	chain 1 S101P D106G W108F	0.244
≥ 10	chain 1 S101V Y102V	0.432
≥ 10	chain 1 D106G	0.655
≥ 10	chain 1 D106R	0.451
≥ 10	chain 1 D106P	0.635
≥ 10	chain 1 G100H Y107H	0.348
≥ 10	chain 1 G100V G109L	0.256
≥ 10	chain 1 T28L F29N	0.821
≥ 10	chain 1 Y103C G104C	0.223
0.11	chain 1 T28W D31Y	0.371
≥ 10	chain 1 T28K Y32V	0.858
≥ 10	chain 1 T28I W36A	0.354
≥ 10	chain 1 Y102G Y103D	1.29
≥ 10	chain 1 G100N M105T	0.413

Kd (fluorescein) [µM]	Variant	yeast surface expression [1]
≥ 10	chain 1 S101M G104W	0.278
≥ 10	chain 1 F29A S30D M34K	0.41
≥ 10	chain 1 M34Y W36K	0.113
≥ 10	chain 1 S101L G104S	0.326
≥ 10	chain 1 Y103P Y107E	0.763
≥ 10	chain 1 Y107P W108A	0.455
0.00215	chain 1 Y102V D106N	0.889
≥ 10	chain 1 Y103I D106A	0.489
≥ 10	chain 1 F29G S30T N35R	0.82
≥ 10	chain 1 Y32C W36R	0.506
≥ 10	chain 1 T28E Y32V	1.14
0.0318	chain 1 T28E Y32R	0.928
≥ 10	chain 1 G100I Y107D	0.381
≥ 10	chain 1 D106A G109H	0.448
≥ 10	chain 1 Y32S W33F	0.984
≥ 10	chain 1 M34G N35H	0.394
≥ 10	chain 1 D106M W108H	0.556
1.91	chain 1 Y102G	0.965
5.96	chain 1 F29V V37G	0.65
≥ 10	chain 1 N35K V37S	0.732
0.00175	chain 1 S30H D31H	0.746
3.74	chain 1 Y32L W36Y	0.682
≥ 10	chain 1 G100N G109H	0.236
≥ 10	chain 1 Y32S M34K V37D	0.882

Kd (fluorescein) [µM]	Variant	yeast surface expression [1]
≥ 10	chain 1 Y103A G104A	0.911
0.195	chain 1 F29C	0.885
≥ 10	chain 1 G104F	0.597
≥ 10	chain 1 G104P	0.859
≥ 10	chain 1 T28M Y32W	0.903
7.33	chain 1 S30I W33Y V37P	0.0571
0.0233	chain 1 W108Q	0.506
0.00209	chain 1 W108A	0.588
≥ 10	chain 1 F29Y V37L	0.669
≥ 10	chain 1 T28W N35A	0.862
≥ 10	chain 1 Y32V	1.02
≥ 10	chain 1 S101T Y102M	0.778
0.24	chain 1 D31S Y32G	0.78
≥ 10	chain 1 Y102L W108Q	0.328
≥ 10	chain 1 N35C	0.708
≥ 10	chain 1 M34R W36P	1.27
